US20220096654A1, “PYRROLOBENZODIAZEPINE-ANTIBODY CONJUGATES AND USES THEREOF” (ADC THERAPEUTICS SA, priority 2020, published 2022)

B1: YTH54.12 (antibody)
heavy: EVQLVESGGGLVQPGGSMKLSCAASGFTFSDYYMAWVRQAPKKGLEWVASMSFAGSSTYYGDSVKGRFTISRDNAKTTLYLQMNSLRSEDTATYYCARMYTTDYYLYWYFDFWGPGTMVTVSSAQTTAPSVYPLAPGCGDTTSSTVTLGCLVKGYFPEPVTVTWNSGALSSDVHTFPAVLQSGLYTLTSSVTSSTWPSQTVTCNVAHPASSTKVDKKVERRNGGIGHKCPTCPTCHKCPVPELLGGPSVFIFPPKPKDILLISQNAKVTCVVVDVSEEEPDVQFSWFVNNVEVHTAQTQPREEQYNSTFRVVSALPIQHQDWMSGKEFKCKVNNKALPSPIEKTISKPKGLVRKPQVYVMGPPTEQLTEQTVSLTCLTSGFLPNDIGVEWTSNGHIEKNYKNTEPVMDSDGSFFMYSKLNVERSRWDSRAPFVCSVVHEGLHNHHVEKSISRPPGK
light: DVQMTQSPSYLAASPGESVSISCKASKSISNYLAWYQQKPGEANKILIYSGSTLQSGTPSRFSGSGSGTDFSLTIRNLEPEDFAVYYCQQYDEKPLTFGSGTKLEIKRADAAPTVSIFPPSMEQLTSGGATVVCFVNNFYPRDISVKWKIDGSEQRDGVLDSVTDQDSKDSTYSMSSTLSLTKVEYERHNLYTCEVVHKTSSSPVVKSFNRNEC
B2: YTH24.5 (antibody)
heavy: QVNLLQSGAALVKPGASVKLSCKASSYTFTDYYIHWVKQSHGKTLEWIGYINPKSGFTNYNEKFRRKATLTVDKSTNTAYMDISRLTSEDSATYYCTRRTGVIPMDAWGQGASVTVSSAQTTAPSVYPLAPGCGDTTSSTVTLGCLVKGYFPEPVTVTWNSGALSSDVHTFPAVLQSGLYTLTSSVTSSTWPSQTVTCNVAHPASSTKVDKKVERRNGGIGHKCPTCPTCHKCPVPELLGGPSVFIFPPKPKDILLISQNAKVTCVVVDVSEEEPDVQFSWFVNNVEVHTAQTQPREEQYNSTFRVVSALPIQHQDWMSGKEFKCKVNNKALPSPIEKTISKPKGLVRKPQVYVMGPPTEQLTEQTVSLTCLTSGFLPNDIGVEWTSNGHIEKNYKNTEPVMDSDGSFFMYSKLNVERSRWDSRAPFVCSVVHEGLHNHHVEKSISRPPGK
light: DVVMTQTPVSLSVSLGGQVSISCRSSQSFVSSDGNTYLNWYLQKPGQSPQLLIYKVSNRLSGVPDRFSGSGSGTDFTLKISRVEHDDLGVYYCGQASKIPLTFGSGTKLEIKRADAAPTVSIFPPSMEQLTSGGATVVCFVNNFYPRDISVKWKIDGSEQRDGVLDSVTDQDSKDSTYSMSSTLSLTKVEYERHNLYTCEVVHKTSSSPVVKSFNRNEC

Tests used:
human CD34+ cells = assay: Ex vivo treatment of CD34+ cells with Mab or ADC prior to engraftment in NSG mice; settings: CD34+ cells treated at 1 nM and 0.1 nM for 4 hours before transplantation; week 8
Experimental: Adult female NSG mice were sublethally irradiated with 2.5 Gy on the day before transplantation. Cryopreserved purified CD34+ cells from mobilized peripheral blood from a normal donor were thawed and cultured in complete medium (RPMI 1640 plus 10% fetal calf serum) in presence of Mab, ADC or medium alone for 4 hours. Cells were washed in phosphate buffered saline (PBS) and 0.5×10^6 cells in PBS were injected intravenously into the tail vein of mice. Engraftment of transplanted human cells (hCD45+) in the bone marrow of mice was determined by flow cytometry at 8 weeks after transplantation.

[1] = Dosimetry in non-humanised NSG mice; assay type: in vivo; settings: 5 mg/kg i.v., non-humanised NSG mice, monitored 2 weeks
Experimental: For dosimetry in non-humanised NSG mice, adult NSG mice were injected intravenously via the tail vein with unconjugated Mab or ADC up to 5 mg/kg. Mice regularly monitored over a period of 2 weeks for any signs of morbidity. Mice were culled if rapid weight loss (>15%) occurred over a period of 2 days.

human CD45+ cells = assay: Depletion of human CD45+ cells in humanised NSG mice; assay type: in vivo; settings: for course of the levels of human CD45+ cells in blood: 1 mg/kg, two week period
Experimental: Adult female NSG mice were sublethally irradiated with 2.5 Gy on the day before transplantation (day −57). Cryopreserved purified CD34+ cells from mobilized peripheral blood from a normal donor were thawed and 0.5×10^6 cells in PBS were injected intravenously into the tail vein of mice (day −56). Human engraftment (human CD45+ cells) in the blood of mice was assessed at day −14 and day −1. Mice were assigned to treatment cohorts so that the median human CD45+ engraftment in the blood between the cohorts was as similar as possible. Mice were injected with 0.3 mg/kg or 1 mg/kg Mab or ADC intravenously via the tail vein. Blood samples were taken after 7 days and analysed by flow cytometry. The bone marrow, blood and spleen of mice were analysed at two weeks post-treatment.

human CD45+ OCIM1 cells = assay: Complement dependent cytotoxicity (51Cr release) assay; assay type: cell-based; settings: 10 ug/ml antibody, 10% baby rabbit serum
Experimental: 1×10^6 human CD45+ OCIM1 cells in 100 uL of complete medium (RPMI 1640 plus 10% fetal calf serum) were radiolabelled with 100 μCi ^51Cr sodium chromate for 1 h at 37° C. followed by three washes with complete medium. Labelled cells were incubated at 5×10^4/mL in triplicate wells of a 96 well plate in presence of YTH24.5 alone, YTH54.12 alone or with both antibodies for 10 mins at room temperature before of addition of baby rabbit serum at a final concentration of 10%. A final concentration of 5% Triton X-100 was added to control wells of cells to determined maximum lysis. 50 uL of supernatant from each well was transferred into a white-walled plates containing 150 uL scintillation liquid in each well. Plates were read in a MicroBeta counter (Trilux) after overnight incubation. The percentage of specific lysis was calculated using the standard formula [(experimental−spontaneous release)/(maximum load-spontaneous release)×100] and expressed as the mean of triplicate samples.

target cells = assay: Live-imaging microscopy of antibody internalisation; assay type: cell-based; settings: live-imaging microscopy (data not shown)
Source text: In particular, the lysosomal pathway can be important in providing an environment for cleavage of the antibody-drug linkers, hereby releasing the drug in the target cells for highly specific cell killing.

CD34+ PBSC (CD45+) = assay: Clonogenic assay, CD34+ PBSC treated 2 h with Mab or ADC; assay type: cell-based, human; settings: MAbs in human IgG1-AAA or rat IgG2b format; Isotype control and Isotype control PBD rat IgG2b format only
Experimental: Cryopreserved purified CD34+ cells from mobilized peripheral blood from three normal donors were thawed and cultured at […] complete medium (RPMI 1640 plus 10% fetal calf serum) in presence of Mab, ADC or medium alone for 2 hours in 96-well U-bottom plates. Cells were mixed and 40 uL was transferred to 2 ml of StemMACS HSC-CFU complete with Epo (Miltenyi Biotech) and mixed well. 0.5 ml (250 cells) was plated into triplicate into wells of a 24-well plate. Colonies were enumerated between 10-14 days. Data is mean of three donors±s.d.

[2] = tested on: luciferase expressing human CD45+ Jurkat cells; assay: Jurkat leukaemia model in NSG mice (bioluminescence, survival); assay type: in vivo; settings: 1 mg/kg, day 16
Experimental: Adult NSG mice were sublethally irradiated with 2 Gy on the day before injection of cells. 5×10^6 fire fly luciferase expressing Jurkat cells in PBS were injected intravenously into the tail vein of mice. On the following day PBS, MAbs or ADC were injected intravenously into the tail vein at a dose of 1 mg/kg. Mice were regularly monitored for signs of morbidity and weight loss for the duration of the experiment. For imaging, mice were injected intraperitoneally with 3 mg D-luciferin in PBS. Mice were initially anesthetized with 4% isoflurane and then maintained at 2% isoflurane. Ten minutes after injection of D-luciferin, mice were imaged inside a IVIS Lumina III (PerkinElmer). A sub-saturating image was captured using the auto-exposure setting in the Living Image software.

Row | Molecule | engraftment of human CD45+ cells in the bone marrow of NSG mice (human CD34+ cells) | Comment (survival / culling) [1] | Mean % hCD45 levels in blood, 1 week post-treatment (human CD45+ cells; 0.3 mg/kg i.v.) [%] | Mean % hCD45 levels in blood, 2 weeks Post-treatment (human CD45+ cells; 0.3 mg/kg i.v.) [%] | Mean % hCD45 levels in blood, 1 week post-treatment (human CD45+ cells; 1 mg/kg i.v.) [%] | Mean % hCD45 levels in blood, 2 weeks Post-treatment (human CD45+ cells; 1 mg/kg i.v.) [%] | course of the levels of human CD45+ cells in blood (human CD45+ cells) | Mean % hCD45 levels in blood, Pre-treatment (human CD45+ cells; group later dosed 0.3 mg/kg) [%] | Mean % hCD45 levels in blood, Pre-treatment (human CD45+ cells; group later dosed 1 mg/kg) [%] | lytic activity on OCIM1 cells (human CD45+ OCIM1 cells) | internalisation (target cells) | inhibition of colony formation (CD34+ PBSC (CD45+)) | bioluminescent signal of naked antibody group relative to the corresponding ADC group [2] [fold]
1 | B1 | prevented engraftment | All alive at day 14 | 3.19 | 3.81 | 1.02 | 1.84 | transient reduction | 5.52 | 5.98 | no lytic activity | substantially internalised via a lysosomal pathway | do not inhibit colony formation | 10
2 | B2 | prevented engraftment | All alive at day 14 | 3.53 | 4.72 | 0.82 | 3.92 | transient reduction | 5.55 | 5.47 | showed lytic activity | substantially internalised via a lysosomal pathway | do not inhibit colony formation | 100
